This is an account of results in patent US9803013B2, “Biological materials and uses thereof” (BioInvent International AB, priority 2005, dated 2017).

One series concerns DU145. Briefly: IgG binding to carcinoma cell line, flow cytometry MFI. The arrangement: species or system human. Particulars: DU145, Prostate carcinoma. An excerpt: (§1) The antigen distribution of human antibody targeted antigens, mainly for B11, on different carcinoma cell lines was investigated. Cells (MCF-7 and MDA MB 435S breast carcinoma, JAR and JEG-3 chorio-carcinoma, A549 lung carcinoma, TCC-SUP urinary bladder carcinoma, MDA MB 435 melanoma, HPAC, PANC-1 and BxPC-3 pancreatic carcinoma, PC-3 and DU145 prostate carcinoma, LS174 T, CaCo2, and Lovo colorectal carcinoma, and THP-1 monocytic leukaemia cells), were washed in PBS, and resuspended at 4×10^6 cells/ml in Complete Medium (200,000 cells/50 […] sample). […] Cells were incubated with either of the antibodies for 1 hour on ice, washed by resuspension in PBS/BSA 0.5%, centrifuged at 1200 rpm for 5 min, and complete aspiration of the supernatants was undertaken. Cells were incubated with PE-conjugated Goat F(ab′)2 anti-Human IgG (Caltag Laboratories, Cat no: H10104), diluted 1/50 in PBS/BSA 0.5%, for 30 min, on ice. Following resuspension of in 300 μl PBS/BSA 0.5%, cells were analysed for IgG binding using a FACScan instrument.
For orientation: In flow cytometry, cells or beads pass a laser one at a time.

Another series concerns JEG-3. The description is as above. The arrangement: species or system human. The note with it: JEG-3, Chorio-carcinoma.
Text: as §1

For a further series, the system named is MDA MB 435S. The series is described as above. The arrangement: species or system human. The note with it: Mammary carcinoma.
Text: as §1

A further series concerns the target T1, ICAM-3 (Homo sapiens, UniProt P32942).
T1 sequence (P32942 30-547): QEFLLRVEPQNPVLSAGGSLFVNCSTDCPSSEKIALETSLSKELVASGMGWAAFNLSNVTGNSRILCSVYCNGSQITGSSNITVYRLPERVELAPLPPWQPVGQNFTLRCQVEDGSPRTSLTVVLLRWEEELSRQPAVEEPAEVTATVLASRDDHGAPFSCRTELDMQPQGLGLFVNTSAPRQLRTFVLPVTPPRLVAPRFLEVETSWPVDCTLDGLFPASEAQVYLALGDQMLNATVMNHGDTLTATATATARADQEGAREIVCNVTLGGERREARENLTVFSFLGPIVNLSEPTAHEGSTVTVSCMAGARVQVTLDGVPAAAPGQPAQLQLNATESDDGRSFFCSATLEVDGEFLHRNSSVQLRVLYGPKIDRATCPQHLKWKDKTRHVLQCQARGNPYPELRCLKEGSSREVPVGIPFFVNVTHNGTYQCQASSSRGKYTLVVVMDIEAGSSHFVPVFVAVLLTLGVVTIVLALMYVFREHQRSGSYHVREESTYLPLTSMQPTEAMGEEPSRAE
The series can be described thus: Binding to recombinant ICAM family protein.

In series [1] the test system is endothelial cells (HUVEC, HMVEC). The series can be described thus: HUVEC and HMVEC apoptosis assay. Format: cell-based. On the procedure: (FIG. 23G) Antibody-induced endothelial cell apoptosis. HUVEC or HMVEC endothelial cells were incubated with paclitaxel (positive control), BI-505 or isotype control IgG in the presence or absence of cross-linking mAb. Apoptosis was measured by flow-cytometry following staining of cells with Annexin V-AF488.
Based on BI-505's documented ability to confer Fc:FcγR-dependent antitumor activity in malignant B cells, and a proposed general negative role for complement activation with regard to antibody tolerability (Lim et al.; van der Kolk et al., 2001), direct cytotoxic effects (PCD, ADCC, and CDC) of BI-505 in ICAM-1-expressing human peripheral blood B cells and endothelial cells were examined.
HUVEC (Cascade Biologics, pool of donors) and HMVEC (Cascade Biologics) were plated in 6-well plates (80 000-120 000 cells/well) in the presence or absence of 200 U/mL IFNγ, in order to induce ICAM-1 expression. Media was changed the day before apoptosis-induction experiments were performed and titrated concentrations of BI-505, enlimomab or isotype control antibody were added to the cells, in the presence or absence of cross-linking Fab (ab′)2 (same as the B-cell protocol). […] Necrotic cells were identified by increased fluorescence in the FL-4 channel and apoptotic cells by increased signal in the FL-1 channel on a flow cytometer (FACSCalibur, BD Bioscience).

For the next series, the system named is PBMC. The series can be described thus: PBMC cytokine release. Particulars: immobilized (air-dried or wet coated) or in solution. Type of series: cell-based, human. The method, then: (FIG. 23D) Antibody-induced PBMC cytokine release. PBMC cytokine release was measured by ELISA of cell culture supernatants for IL-1β, IL-2, IL-6, IL-8, IFN-γ and TNF-α following incubation of cells in plates coated with hyper cross-linked (air-dried “A” or wet coated “W”) BI-505, isotype control, or positive control Okt-3 antibody.
(FIG. 23E) Antibody-induced cytokine release in LPS-primed PBMC. PBMC were incubated with titrated LPS and concentrations yielding submaximal cellular release of IL-1β. (100 pg/ml), IL-6 (10 pg/ml), IL-8 (10 pg/ml), and TNF-α (10 pg/ml) were determined (arrows, left panel), and used in subsequent experiments assessing antibody (BI-505 or ctrl IgG) effects on cytokine release from LPS-primed PBMC (right panel). Treatment with 100 ng/ml LPS served as positive control for robust cytokine release.
Cytokine release and T cell proliferation are thought to be common causes of mild and severe adverse reactions to antibody therapy. In order to further investigate any undesirable effects of BI-505 on ICAM-1 expressing immune cells, we therefore assessed putative effects of BI-505 on peripheral blood mononuclear cell (PBMC) cytokine release and T cell proliferation. […]
For cell culture cytokine quantifications, cells were seeded in 96-well cell culture wet and air-dried coated plates at a density of 1×10^6 cells/mL and cultured with antibodies for 24 hr. […]

B1: B11: fully human IgG1 antibody specific for ICAM-1; VH and VL sequences of FIG. 10 (SEQ ID NOs. 6 and 8) (antibody, listed as Homo sapiens, V domains shown)
VH: EVQLLESGGGLVQPGGSLRLSCAASGFTFSNAWMSWVRQAPGKGLEWVAFIWYDGSNKYYADSVKGRFTISRDNSKNTLYLQMNSLRAEDTAVYYCARYSGWYFDYWGQGTLVTVSS
VL: QSVLTQPPSASGTPGQRVTISCTGSSSNIGAGYDVHWYQQLPGTAPKLLIYDNNNRPSGVPDRFSGSKSGTSASLAISGLRSEDEADYYCQSYDSSLSAWLFGGGTKLTVLG
Take B1: the MFI came out at 2200 in the series with DU145, 1600 in the series with JEG-3 and 800 with MDA MB 435S. For the same molecule, the “binding to recombinant protein” value with ICAM-3 is “not to ICAM-2 or ICAM-3”. Further, in series [1], the “cell death in normal cells” value is recorded as “did not induce cell death”. Also, the “PBMC cytokine release” value in the series with PBMC is on record as “did not, however, induce PBMC cytokine release”.
